Assay results as given in the supplement of paper PMC9233669.
Fewer inactive variants are shown than the library holds.

Key:
biotinyl-Ile-oxazolone = experiment: self-aminoacylation, catalytic enhancement (BIO) (fold over background); higher = more active; k-Seq, kA / k0A0; sequences stand for … in GGGAAUGGAUCCACAUCUACGAAUUC…UUCACUGCAGACUUGACGAAGCUG
Procedure, shortened: (§1)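 Mutagenized RNA pools with a 21-nt variable region (0.43 μM) reacted with each biotinyl-aminoacyl-oxazolone at 2–1250 μM. Reactions ran in 50 μL HEPES/NaCl/KCl/MgCl2/CaCl2 buffer with 5% acetonitrile, pH 6.9–7.0, for 90 minutes at room temperature. Streptavidin-captured RNA was quantified by triplicate qPCR and Illumina sequencing, and per-sequence fraction reacted was fit to a pseudo-first-order model with 1000 bootstraps. Catalytic enhancement is median kA divided by the uncatalyzed rate, the low-activity peak of a bimodal Gaussian fit.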

biotinyl-Leu-oxazolone = experiment: self-aminoacylation, catalytic enhancement (BLO) (fold over background); higher = more active; k-Seq, kA / k0A0; sequences stand for … in GGGAAUGGAUCCACAUCUACGAAUUC…UUCACUGCAGACUUGACGAAGCUG
Procedure, shortened: as §1

biotinyl-Met-oxazolone = experiment: self-aminoacylation, catalytic enhancement (BMO) (fold over background); higher = more active; k-Seq, kA / k0A0; sequences stand for … in GGGAAUGGAUCCACAUCUACGAAUUC…UUCACUGCAGACUUGACGAAGCUG
Procedure, shortened: as §1

biotinyl-Phe-oxazolone = experiment: self-aminoacylation, catalytic enhancement (BFO) (fold over background); higher = more active; k-Seq, kA / k0A0; sequences stand for … in GGGAAUGGAUCCACAUCUACGAAUUC…UUCACUGCAGACUUGACGAAGCUG
Procedure, shortened: as §1

biotinyl-Val-oxazolone = experiment: self-aminoacylation, catalytic enhancement (BVO) (fold over background); higher = more active; k-Seq, kA / k0A0; sequences stand for … in GGGAAUGGAUCCACAUCUACGAAUUC…UUCACUGCAGACUUGACGAAGCUG
Procedure, shortened: as §1

biotinyl-Trp-oxazolone = experiment: self-aminoacylation, catalytic enhancement (BWO) (fold over background); higher = more active; k-Seq, kA / k0A0; sequences stand for … in GGGAAUGGAUCCACAUCUACGAAUUC…UUCACUGCAGACUUGACGAAGCUG
Procedure, shortened: as §1

| Sequence | self-aminoacylation (biotinyl-Ile-oxazolone) | self-aminoacylation (biotinyl-Leu-oxazolone) | self-aminoacylation (biotinyl-Met-oxazolone) | self-aminoacylation (biotinyl-Phe-oxazolone) | self-aminoacylation (biotinyl-Val-oxazolone) | self-aminoacylation (biotinyl-Trp-oxazolone) |
| --- | --- | --- | --- | --- | --- | --- |
| AAGUUUGCUAAGUGUCGCAAG [Fam3.1 aminoacylation ribozyme variant] | 0.902 | 0.786 | 0.887 | 1.9 | 0.897 | 0.987 |
| AAGUUUGCUAAUAAACGCAAG [Fam3.1 aminoacylation ribozyme variant] | 0.774 | 0.687 | 0.833 | 1.12 | 0.667 | 0.97 |
| AAGUUUGCUAAUAAUCGCAAC [Fam3.1 aminoacylation ribozyme variant] | 0.8 | 0.773 | 1.06 | 0.842 | 0.975 | 1.18 |
| AAGUUUGCUAAUAAUGGCAAG [Fam3.1 aminoacylation ribozyme variant] | 0.644 | 0.479 | 0.599 | 0.786 | 0.727 | 0.585 |
| AAGUUUGCUAAUACCCGCAAG [Fam3.1 aminoacylation ribozyme variant] | 0.909 | 0.783 | 0.577 | 0.631 | 0.838 | 1.45 |
| AAGUUUGCUAAUAGACGCAUG [Fam3.1 aminoacylation ribozyme variant] | 0.645 | 0.553 | 0.48 | 0.785 | 0.59 | 0.703 |
| AAGUUUGCUAAUAGCCGCAAA [Fam3.1 aminoacylation ribozyme variant] | 1.92 | 1.38 | 1.86 | 1.38 | 1.58 | 1.3 |
| AAGUUUGCUAAUAGCCGCCAG [Fam3.1 aminoacylation ribozyme variant] | 1.52 | 1.03 | 1.1 | 0.63 | 1.45 | 1.21 |
| AAGUUUGCUAAUAGGCGCAGG [Fam3.1 aminoacylation ribozyme variant] | 0.831 | 0.907 | 0.67 | 0.997 | 0.965 | 1.18 |
| AAGUUUGCUAAUAGGCGUAAG [Fam3.1 aminoacylation ribozyme variant] | 0.669 | 0.66 | 0.735 | 0.828 | 0.735 | 0.664 |
| AAGUUUGCUAAUAGUAACAAG [Fam3.1 aminoacylation ribozyme variant] | 1.19 | 1.12 | 1.52 | 1.58 | 1.1 | 1.41 |
| AAGUUUGCUAAUAGUAGCAAC [Fam3.1 aminoacylation ribozyme variant] | 1.09 | 0.631 | 0.942 | 1.08 | 1.15 | 0.859 |
| AAGUUUGCUAAUAGUAGCAAU [Fam3.1 aminoacylation ribozyme variant] | 1.32 | 1.11 | 1.57 | 1.15 | 1.32 | 1.78 |
| AAGUUUGCUAAUAGUCAUAAG [Fam3.1 aminoacylation ribozyme variant] | 1.44 | 1.15 | 1.27 | 17.9 | 1.25 | 5.59 |
| AAGUUUGCUAAUAGUCCCAAC [Fam3.1 aminoacylation ribozyme variant] | 0.639 | 0.585 | 0.505 | 1.04 | 0.643 | 0.629 |
| AAGUUUGCUAAUAGUCCCAAU [Fam3.1 aminoacylation ribozyme variant] | 1.3 | 1 | 0.987 | 1.36 | 0.912 | 1.28 |
| AAGUUUGCUAAUAGUCGAUAG [Fam3.1 aminoacylation ribozyme variant] | 0.824 | 0.805 | 0.781 | 1.42 | 0.846 | 0.829 |
| AAGUUUGCUAAUAGUCGCAAC [Fam3.1 aminoacylation ribozyme variant] | 0.972 | 0.816 | 0.904 | 1.28 | 0.935 | 1.06 |
| AAGUUUGCUAAUAGUCGCAGU [Fam3.1 aminoacylation ribozyme variant] | 1.33 | 1.66 | 1.91 | 8.27 | 1.34 | 3.14 |
| AAGUUUGCUAAUAGUCGCAUC [Fam3.1 aminoacylation ribozyme variant] | 0.778 | 0.61 | 0.649 | 1.53 | 0.706 | 0.681 |
| AAGUUUGCUAAUAGUCGCAUG [Fam3.1 aminoacylation ribozyme variant] | 1.03 | 0.932 | 0.93 | 1.47 | 0.916 | 0.976 |
| AAGUUUGCUAAUAGUCGCGAG [Fam3.1 aminoacylation ribozyme variant] | 1.33 | 1.29 | 1.33 | 2.01 | 1.2 | 2 |
| AAGUUUGCUAAUAGUCGCUAU [Fam3.1 aminoacylation ribozyme variant] | 1.31 | 1.06 | 1.26 | 1.39 | 0.984 | 1.08 |
| AAGUUUGCUAAUAGUCGGAAU [Fam3.1 aminoacylation ribozyme variant] | 1.37 | 1.41 | 1.5 | 1.54 | 1.41 | 1.18 |
| AAGUUUGCUAAUAGUCGUAAG [Fam3.1 aminoacylation ribozyme variant] | 1.19 | 0.914 | 1.34 | 33 | 1.05 | 8.22 |
| AAGUUUGCUAAUAGUCGUAAU [Fam3.1 aminoacylation ribozyme variant] | 1.19 | 1.07 | 1.19 | 1.24 | 1.23 | 1.13 |

| Sequence | self-aminoacylation (biotinyl-Ile-oxazolone) | self-aminoacylation (biotinyl-Leu-oxazolone) | self-aminoacylation (biotinyl-Met-oxazolone) | self-aminoacylation (biotinyl-Phe-oxazolone) | self-aminoacylation (biotinyl-Val-oxazolone) | self-aminoacylation (biotinyl-Trp-oxazolone) |
| --- | --- | --- | --- | --- | --- | --- |
| AAGUUUGCUAAUAGUGGCACG [Fam3.1 aminoacylation ribozyme variant] | 0.684 | 0.622 | 0.636 | 0.682 | 0.689 | 0.733 |
| AAGUUUGCUAAUCGCCGCAAG [Fam3.1 aminoacylation ribozyme variant] | 1.97 | 1.54 | 1.56 | 2.82 | 1.47 | 4.38 |
| AAGUUUGCUAAUCGUCGGAAG [Fam3.1 aminoacylation ribozyme variant] | 0.972 | 0.799 | 0.704 | 1.64 | 0.869 | 1.42 |
| AAGUUUGCUAAUCUUCGCAAG [Fam3.1 aminoacylation ribozyme variant] | 1.11 | 0.95 | 1.07 | 0.816 | 1.07 | 1.19 |
| AAGUUUGCUAAUGGUCGCCAG [Fam3.1 aminoacylation ribozyme variant] | 1.1 | 1.11 | 1.09 | 5.81 | 0.896 | 1.52 |
| AAGUUUGCUAAUUCUCGCAAG [Fam3.1 aminoacylation ribozyme variant] | 1.26 | 1.08 | 1.06 | 0.747 | 0.999 | 2.64 |
| AAGUUUGCUAAUUGUCGCAGG [Fam3.1 aminoacylation ribozyme variant] | 1.19 | 1.45 | 1.43 | 2.72 | 1.3 | 1.34 |
| AAGUUUGCUAAUUGUCGCAUG [Fam3.1 aminoacylation ribozyme variant] | 0.982 | 1.32 | 1.18 | 1.11 | 1.07 | 1.49 |
| AAGUUUGCUAAUUGUCGCUAG [Fam3.1 aminoacylation ribozyme variant] | 0.95 | 1.17 | 1 | 0.848 | 1.02 | 1.08 |
| AAGUUUGCUAAUUGUUGCAAG [Fam3.1 aminoacylation ribozyme variant] | 0.929 | 0.945 | 0.901 | 1.11 | 0.775 | 0.926 |
| AAGUUUGCUACUAGUCGCAAG [Fam3.1 aminoacylation ribozyme variant] | 0.824 | 0.766 | 0.802 | 1.13 | 0.838 | 0.775 |
| AAGUUUGCUACUAGUCGGAAG [Fam3.1 aminoacylation ribozyme variant] | 0.835 | 0.518 | 0.712 | 0.777 | 0.749 | 0.866 |
| AAGUUUGCUACUAGUCGUAAG [Fam3.1 aminoacylation ribozyme variant] | 0.772 | 0.759 | 0.848 | 0.833 | 0.783 | 0.867 |
| AAGUUUGCUACUUGUCGCAAG [Fam3.1 aminoacylation ribozyme variant] | 1.05 | 1.06 | 0.928 | 1.01 | 1.12 | 1.21 |
| AAGUUUGCUAGUAGUAGCAAG [Fam3.1 aminoacylation ribozyme variant] | 1.24 | 1 | 0.808 | 1.62 | 1.18 | 1.2 |
| AAGUUUGCUAGUAGUCCCAAG [Fam3.1 aminoacylation ribozyme variant] | 1.01 | 0.873 | 0.75 | 1.65 | 1.14 | 1.68 |
| AAGUUUGCUAGUAGUCGCAAG [Fam3.1 aminoacylation ribozyme variant] | 0.746 | 0.706 | 0.745 | 1.13 | 0.773 | 0.851 |
| AAGUUUGCUAUUACUCGCAAG [Fam3.1 aminoacylation ribozyme variant] | 0.728 | 0.82 | 0.734 | 1.09 | 0.868 | 0.738 |
| AAGUUUGCUAUUAGGCGCAAG [Fam3.1 aminoacylation ribozyme variant] | 0.746 | 0.546 | 0.591 | 0.81 | 0.681 | 0.841 |
| AAGUUUGCUAUUAGUCGCAAG [Fam3.1 aminoacylation ribozyme variant] | 0.848 | 0.76 | 0.814 | 1.08 | 0.823 | 0.826 |
| AAGUUUGCUAUUAGUCGCCAG [Fam3.1 aminoacylation ribozyme variant] | 1.01 | 1.12 | 0.864 | 0.947 | 0.818 | 0.849 |
| AAGUUUGCUAUUAGUCUCAAG [Fam3.1 aminoacylation ribozyme variant] | 0.998 | 0.928 | 0.976 | 1.66 | 1.07 | 0.975 |
| AAGUUUGCUCAUACUCGCAAG [Fam3.1 aminoacylation ribozyme variant] | 0.777 | 0.715 | 0.742 | 0.813 | 0.752 | 0.748 |
| AAGUUUGCUCAUAGUAGCAAG [Fam3.1 aminoacylation ribozyme variant] | 0.928 | 0.817 | 0.727 | 1.58 | 1.09 | 0.786 |
| AAGUUUGCUCAUAGUUGCAAG [Fam3.1 aminoacylation ribozyme variant] | 0.916 | 0.896 | 0.916 | 1.04 | 0.772 | 0.888 |
